Patent US20120238509A1
No end group written: not given here. *: point of attachment. Acm = CC(=O)NC*

B1: mUcn 2 prohormone (peptide)
peptide: TPIPTFQLLPQNSLETTPSSVTSESSSGTTTGPSASWSNSKASPYLDTRVILSLDVPIGLLRILLEQARYKAARNQAATNAQILAHV
modifications: here or on the partner: amidated at the C-terminus
B2: [Cys^1, 51(Acm)]-hUcn2(1-51)-OH) (peptide)
peptide: C(Acm)SPTRHPGSRIVLSLDVPIGLLQILLEQARARAAREQATTNARILARVGHC(Acm)-OH
B3: hUcn 2 prohormone (peptide)
peptide: IPTFQLRPQNSPQTTPRPAASESPSAAPTWPWAAQSHCSPTRHPGSRIVLSLDVPIGLLQILLEQARARAAREQATTNARILARV
modifications: here or on the partner: amidated at the C-terminus

Target: CRFR^2 expressed by A7r5 cells, P47866
Assay: cell-based or functional assay

Sequence of CRFR^2 expressed by A7r5 cells, P47866 (P47866 20-411): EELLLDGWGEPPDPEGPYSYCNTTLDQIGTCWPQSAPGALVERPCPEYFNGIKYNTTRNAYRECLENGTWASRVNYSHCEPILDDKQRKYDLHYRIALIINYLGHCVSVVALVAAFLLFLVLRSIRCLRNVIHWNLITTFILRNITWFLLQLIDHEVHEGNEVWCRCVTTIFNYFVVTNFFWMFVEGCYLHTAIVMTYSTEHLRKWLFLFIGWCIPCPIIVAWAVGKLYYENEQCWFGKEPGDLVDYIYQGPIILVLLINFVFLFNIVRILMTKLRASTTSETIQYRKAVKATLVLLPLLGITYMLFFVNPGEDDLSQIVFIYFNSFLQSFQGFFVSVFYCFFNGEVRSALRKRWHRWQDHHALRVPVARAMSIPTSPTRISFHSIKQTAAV

| Binder | cAMP A7r5 (EC50, nM) [nM] |
| --- | --- |
| IVLSLDVPIGLLQILLEQARARAAREQATTNARILARV-OH [hUcn 2-OH] | 90.4 |
| VILSLDVPIGLLRILLEQARYKAARNQAATNAQILAHV-NH2 [mUcn 2] | 0.07 |
| RVILSLDVPIGLLRILLEQARYKAARNQAATNAQILAHV-NH2 [R^0-mUcn 2] | 0.05 |
| B1 | 0.53 |
| IVLSLDVPIGLLQILLEQARARAAREQATTNARILARVG-OH [hUcn 2-G-OH] | 6.3 |
| IVLSLDVPIGLLQILLEQARARAAREQATTNARILARVGH-OH [hUcn 2-GH-OH] | 2.9 |
| IVLSLDVPIGLLQILLEQARARAAREQATTNARILARVGHC-OH [hUcn 2-GHC-OH] | 13.9 |
| IVLSLDVPIGLLQILLEQARARAAREQATTNARILARV-NH2 [hUcn 2] | 0.11 |
| RIVLSLDVPIGLLQILLEQARARAAREQATTNARILARV-NH2 [R^0-hUcn 2] | 0.027 |
| HPGSRIVLSLDVPIGLLQILLEQARARAAREQATTNARILARV-NH2 [SRP (HPGSR-hUcn 2)] | 0.09 |
| B2 | 9.5 |
| B3 | 2.3 |
